According to publication PMC5345230, “Disruption of TWIST1-RELA binding by mutation and competitive inhibition to validate the TWIST1 WR domain as a therapeutic target” (BMC Cancer, 2017):
Where a chain is given by its changes, count along the chain named. Numbers in names are those of the source.

B1: TWIST1 E193A (natural protein, human, UniProt Q15672 1-202, looked up)
chain: MMQDVSSSPVSPADDSLSNSEEEPDRQQPPSGKRGGRKRRSSRRSAGGGAGPGGAAGGGVGGGDEPGSPAQGKRGKKSAGCGGGGGAGGGGGSSSGGGSPQSYEELQTQRVMANVRERQRTQSLNEAFAALRKIIPTLPSDKLSKIQTLKLAARYIDFLYQVLQSDELDSKMASCSYVAHERLSYAFSVWRMAGAWSMSASH
B2: TWIST1 W190A (natural protein, human, UniProt Q15672 1-202, looked up)
chain: B1 chain with W190A, A193E
B3: TWIST1 R191A (natural protein, human, UniProt Q15672 1-202, looked up)
chain: B1 chain with R191A, A193E

The binders below were run against RELA (wild type), NF-kB subunit p65 (UniProt Q04206 1-551) (assay: cell-based or functional assay).
Chain of RELA (wild type), NF-kB subunit p65 (Q04206 whole entry): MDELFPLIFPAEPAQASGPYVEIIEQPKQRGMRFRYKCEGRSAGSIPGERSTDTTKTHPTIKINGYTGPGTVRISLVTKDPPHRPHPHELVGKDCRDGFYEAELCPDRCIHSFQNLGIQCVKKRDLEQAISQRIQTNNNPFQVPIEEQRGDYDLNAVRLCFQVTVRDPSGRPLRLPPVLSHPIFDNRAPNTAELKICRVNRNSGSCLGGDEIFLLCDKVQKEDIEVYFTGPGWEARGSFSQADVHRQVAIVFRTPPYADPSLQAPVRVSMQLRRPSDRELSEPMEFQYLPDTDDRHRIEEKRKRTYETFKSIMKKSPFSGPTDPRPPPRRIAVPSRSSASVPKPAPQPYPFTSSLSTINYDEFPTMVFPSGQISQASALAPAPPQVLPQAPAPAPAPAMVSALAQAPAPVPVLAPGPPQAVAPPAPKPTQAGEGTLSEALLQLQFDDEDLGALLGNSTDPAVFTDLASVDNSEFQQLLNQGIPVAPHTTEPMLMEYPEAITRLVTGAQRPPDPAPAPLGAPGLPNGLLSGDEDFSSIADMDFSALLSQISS

| IL-8 promoter driven firefly luciferase (dual luciferase assay) in Ovcar4 cells, reduction against wild type TWIST1 | Binder |
| --- | --- |
| 50% | B1 |
| 50% | B2 |
| 50% | B3 |
